According to the supplement of paper PMC11908140:

B1: library; numbered along this chain (parent)
chain: MRKPRAAVGSGHRKQAASQEGRQKHAKNNSQAKPSACDGLARQPEEVVLQASVSSYHLFRDVAEVTAFRGSLLSWYDQEKRDLPWRRRAEDEMDLDRRAYAVWVSEVMLQQTQVATVINYYTGWMQKWPTLQDLASASLEEVNQLWAGLGYYSRGRRLQEGARKVVEELGGHMPRTAETLQQLLPGVGRYTAGAIASIAFGQATGVVDGNVARVLCRVRAIGADPSSTLVSQQLWGLAQQLVDPARPGDFNQAAMELGATVCTPQRPLCSQCPVESLCRARQRVEQEQLLASGSLSGSPDVEECAPNTGQCHLCLPPSEPWDQTLGVVNFPRKASRKPPREESSATCVLEQPGALGAQILLVQRPNSGLLAGLWEFPSVTWEPSEQLQRKALLQELQRWAGPLPATHLRHLGEVVHTFSHIKLTYQVYGLALEGQTPVTTVPPGARWLTQEEFHTAAVSTAMKKVFRVYQGQQPGTCMGSKRSQVSSPCSRKKPRMGQQVLDNFFRSHISTDAHSLNSAAQ

Variants of: B1
Test: 8OG:A repair function score (normalized; synonymous = 0, nonsense = -1) (normalized log-likelihood score); higher = more repair activity (WT-like)
Details: with 8OG:A DNA repair reporter (GFP) in HEK-293 MUTYH KO cells
Method in brief: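 With 10 pg/ml doxycycline, MUTYH knockout HEK-293 cells carrying lentiviral MUTYH cDNA NNN codon-scan libraries were co-transfected with mCherry and an 8OG:A GFP repair reporter. Viable mCherry+ cells were sorted into GFP+ (repair) and GFP− bins at 72 h, three replicates per tile, and tile amplicons were sequenced. Per-tile Rosace fitness scores were then normalized into a repair function score anchored on synonymous and nonsense distributions. Medians were fixed at 0 for synonymous and -1 for nonsense, excluding variants under 300 counts per million at the start.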

Variant	8OG:A repair function score
MRKPRAAVGSGHRKQAASQEGRQKHAKNNSQAKPSACDGLARQPEEVVLQASVSSYHLFRDVAEVTAFRGSLLSWYDQEKRDLPWRRRAEDEMDLDRRAYAVWVSEVMLQQTQVATVINYYTGWMQKWPTLQDLASASLEEVNQLWAGLGYYSRGRRLQEGARKVVEELGGHMPRTAETLQQLLPGVGRYTAGAIASIAFGQATGVVDGNVARVLCRVRAIGADPSSTLVSQQLWGLAQQLVDPARPGDFNQAAMELGATVCTPQRPLCSQCPVESLCRARQRVEQEQLLASGSLSGSPDVEECAPNTGQCHLCLPPSEPWDQTLGVVNFPRKASRKPPREESSATCVLEQPGALGAQILLVQRPNSGLLAGLWEFPSVTWEPSEQLQRKALLQELQRWAGPLPATHLRHLGEVVHTFSHIKLTYQVYHLALEGQTPVTTVPPGARWLTQEEFHTAAVSTAMKKVFRVYQGQQPGTCMGSKRSQVSSPCSRKKPRMGQQVLDNFFRSHISTDAHSLNSAAQ [G429H]	-0.299
MRKPRAAVGSGHRKQAASQEGRQKHAKNNSQAKPSACDGLARQPEEVVLQASVSSYHLFRDVAEVTAFRGSLLSWYDQEKRDLPWRRRAEDEMDLDRRAYAVWVSEVMLQQTQVATVINYYTGWMQKWPTLQDLASASLEEVNQLWAGLGYYSRGRRLQEGARKVVEELGGHMPRTAETLQQLLPGVGRYTAGAIASIAFGQATGVVDGNVARVLCRVRAIGADPSSTLVSQQLWGLAQQLVDPARPGDFNQAAMELGATVCTPQRPLCSQCPVESLCRARQRVEQEQLLASGSLSGSPDVEECAPNTGQCHLCLPPSEPWDQTLGVVNFPRKASRKPPREESSATCVLEQPGALGAQILLVQRPNSGLLAGLWEFPSVTWEPSEQLQRKALLQELQRWAGPLPATHLRHLGEVVHTFSHIKLTYQVYILALEGQTPVTTVPPGARWLTQEEFHTAAVSTAMKKVFRVYQGQQPGTCMGSKRSQVSSPCSRKKPRMGQQVLDNFFRSHISTDAHSLNSAAQ [G429I]	-0.0856
MRKPRAAVGSGHRKQAASQEGRQKHAKNNSQAKPSACDGLARQPEEVVLQASVSSYHLFRDVAEVTAFRGSLLSWYDQEKRDLPWRRRAEDEMDLDRRAYAVWVSEVMLQQTQVATVINYYTGWMQKWPTLQDLASASLEEVNQLWAGLGYYSRGRRLQEGARKVVEELGGHMPRTAETLQQLLPGVGRYTAGAIASIAFGQATGVVDGNVARVLCRVRAIGADPSSTLVSQQLWGLAQQLVDPARPGDFNQAAMELGATVCTPQRPLCSQCPVESLCRARQRVEQEQLLASGSLSGSPDVEECAPNTGQCHLCLPPSEPWDQTLGVVNFPRKASRKPPREESSATCVLEQPGALGAQILLVQRPNSGLLAGLWEFPSVTWEPSEQLQRKALLQELQRWAGPLPATHLRHLGEVVHTFSHIKLTYQVYKLALEGQTPVTTVPPGARWLTQEEFHTAAVSTAMKKVFRVYQGQQPGTCMGSKRSQVSSPCSRKKPRMGQQVLDNFFRSHISTDAHSLNSAAQ [G429K]	-0.404
MRKPRAAVGSGHRKQAASQEGRQKHAKNNSQAKPSACDGLARQPEEVVLQASVSSYHLFRDVAEVTAFRGSLLSWYDQEKRDLPWRRRAEDEMDLDRRAYAVWVSEVMLQQTQVATVINYYTGWMQKWPTLQDLASASLEEVNQLWAGLGYYSRGRRLQEGARKVVEELGGHMPRTAETLQQLLPGVGRYTAGAIASIAFGQATGVVDGNVARVLCRVRAIGADPSSTLVSQQLWGLAQQLVDPARPGDFNQAAMELGATVCTPQRPLCSQCPVESLCRARQRVEQEQLLASGSLSGSPDVEECAPNTGQCHLCLPPSEPWDQTLGVVNFPRKASRKPPREESSATCVLEQPGALGAQILLVQRPNSGLLAGLWEFPSVTWEPSEQLQRKALLQELQRWAGPLPATHLRHLGEVVHTFSHIKLTYQVYMLALEGQTPVTTVPPGARWLTQEEFHTAAVSTAMKKVFRVYQGQQPGTCMGSKRSQVSSPCSRKKPRMGQQVLDNFFRSHISTDAHSLNSAAQ [G429M]	-0.288
MRKPRAAVGSGHRKQAASQEGRQKHAKNNSQAKPSACDGLARQPEEVVLQASVSSYHLFRDVAEVTAFRGSLLSWYDQEKRDLPWRRRAEDEMDLDRRAYAVWVSEVMLQQTQVATVINYYTGWMQKWPTLQDLASASLEEVNQLWAGLGYYSRGRRLQEGARKVVEELGGHMPRTAETLQQLLPGVGRYTAGAIASIAFGQATGVVDGNVARVLCRVRAIGADPSSTLVSQQLWGLAQQLVDPARPGDFNQAAMELGATVCTPQRPLCSQCPVESLCRARQRVEQEQLLASGSLSGSPDVEECAPNTGQCHLCLPPSEPWDQTLGVVNFPRKASRKPPREESSATCVLEQPGALGAQILLVQRPNSGLLAGLWEFPSVTWEPSEQLQRKALLQELQRWAGPLPATHLRHLGEVVHTFSHIKLTYQVYLLALEGQTPVTTVPPGARWLTQEEFHTAAVSTAMKKVFRVYQGQQPGTCMGSKRSQVSSPCSRKKPRMGQQVLDNFFRSHISTDAHSLNSAAQ [G429L]	-0.125
MRKPRAAVGSGHRKQAASQEGRQKHAKNNSQAKPSACDGLARQPEEVVLQASVSSYHLFRDVAEVTAFRGSLLSWYDQEKRDLPWRRRAEDEMDLDRRAYAVWVSEVMLQQTQVATVINYYTGWMQKWPTLQDLASASLEEVNQLWAGLGYYSRGRRLQEGARKVVEELGGHMPRTAETLQQLLPGVGRYTAGAIASIAFGQATGVVDGNVARVLCRVRAIGADPSSTLVSQQLWGLAQQLVDPARPGDFNQAAMELGATVCTPQRPLCSQCPVESLCRARQRVEQEQLLASGSLSGSPDVEECAPNTGQCHLCLPPSEPWDQTLGVVNFPRKASRKPPREESSATCVLEQPGALGAQILLVQRPNSGLLAGLWEFPSVTWEPSEQLQRKALLQELQRWAGPLPATHLRHLGEVVHTFSHIKLTYQVYNLALEGQTPVTTVPPGARWLTQEEFHTAAVSTAMKKVFRVYQGQQPGTCMGSKRSQVSSPCSRKKPRMGQQVLDNFFRSHISTDAHSLNSAAQ [G429N]	-0.133
